# Data from the supplement of paper PMC10065799, “High-throughput profiling of sequence recognition by tyrosine kinases and SH2 domains using bacterial peptide display” (eLife, 2023).
# Tests used:
# [1] = system: AncSZ; assay: phosphorylation enrichment, bacterial display (enrichment ratio); higher = better substrate or ligand; peptides without Tyr show the background
# [2] = target: EPHB1 (UniProt P54762); assay: as above
# [3] = target: EPHB2 (UniProt P29323); assay: as above
# [4] = target: FGFR1 (UniProt P11362); assay: as above
# [5] = target: FGFR3 (UniProt P22607); assay: as above
# [6] = system: Fer (mouse); assay: as above
# [7] = target: Fes (UniProt P07332); assay: as above
# [8] = target: Fyn (UniProt P06241); assay: as above
# [9] = target: Hck (UniProt P08631); assay: as above
# [10] = target: Jak2 (UniProt O60674); assay: as above
# [11] = target: MERTK (UniProt Q12866); assay: as above
# [12] = system: c-Abl (mouse); assay: as above
# [13] = system: c-Src; assay: as above
# [14] = target: Grb2 SH2 (UniProt P62993); assay: SH2 binding enrichment of the phosphorylated peptide, bacterial display (enrichment ratio); higher = better substrate or ligand; peptides without Tyr show the background
# [15] = target: SHP2-C SH2; assay: as above
# [16] = target: c-Src SH2; assay: as above
# 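For SH2 binding enrichment of the phosphorylated peptide, bacterial display in this document: peptide library displayed on the E. coli surface as eCPX fusions, selected cells deep-sequenced, score is each peptide's frequency after selection divided by its frequency in the input.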
# 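For phosphorylation enrichment, bacterial display in this document: 11-residue human phosphosite peptides and single-mutation variants displayed on the E. coli surface, counted by deep sequencing, each peptide's frequency after selection divided by its frequency in the unselected input library; frequency after pTyr selection over input frequency; kinase dosed for 20-30% of maximal phosphorylation in three min.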
# Sequence of EPHB1 (P54762 whole entry, looked up): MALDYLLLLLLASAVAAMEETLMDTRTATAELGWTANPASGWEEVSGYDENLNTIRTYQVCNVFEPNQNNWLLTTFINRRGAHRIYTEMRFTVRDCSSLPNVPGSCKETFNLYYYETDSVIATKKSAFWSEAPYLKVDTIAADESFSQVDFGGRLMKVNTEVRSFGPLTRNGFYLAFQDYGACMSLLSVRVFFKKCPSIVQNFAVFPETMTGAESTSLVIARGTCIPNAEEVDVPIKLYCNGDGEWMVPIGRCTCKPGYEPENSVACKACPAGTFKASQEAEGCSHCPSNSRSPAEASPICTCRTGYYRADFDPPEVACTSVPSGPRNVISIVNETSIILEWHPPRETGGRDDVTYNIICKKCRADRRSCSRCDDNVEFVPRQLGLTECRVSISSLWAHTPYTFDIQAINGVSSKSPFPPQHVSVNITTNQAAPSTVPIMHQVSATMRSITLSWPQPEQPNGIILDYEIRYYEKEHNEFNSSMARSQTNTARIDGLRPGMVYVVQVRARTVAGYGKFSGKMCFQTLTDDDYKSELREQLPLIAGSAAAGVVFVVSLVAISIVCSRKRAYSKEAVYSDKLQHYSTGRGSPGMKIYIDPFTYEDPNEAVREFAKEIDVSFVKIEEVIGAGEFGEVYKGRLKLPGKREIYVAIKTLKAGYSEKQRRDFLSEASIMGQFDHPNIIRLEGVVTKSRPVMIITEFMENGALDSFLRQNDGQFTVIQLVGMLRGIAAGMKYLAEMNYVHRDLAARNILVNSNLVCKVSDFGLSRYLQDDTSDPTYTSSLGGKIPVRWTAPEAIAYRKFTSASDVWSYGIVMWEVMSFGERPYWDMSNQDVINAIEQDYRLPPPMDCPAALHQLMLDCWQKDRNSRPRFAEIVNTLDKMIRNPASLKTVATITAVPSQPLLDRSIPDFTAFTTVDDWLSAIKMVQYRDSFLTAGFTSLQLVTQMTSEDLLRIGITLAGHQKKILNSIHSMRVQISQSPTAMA
# Sequence of FGFR3 (P22607 whole entry, looked up): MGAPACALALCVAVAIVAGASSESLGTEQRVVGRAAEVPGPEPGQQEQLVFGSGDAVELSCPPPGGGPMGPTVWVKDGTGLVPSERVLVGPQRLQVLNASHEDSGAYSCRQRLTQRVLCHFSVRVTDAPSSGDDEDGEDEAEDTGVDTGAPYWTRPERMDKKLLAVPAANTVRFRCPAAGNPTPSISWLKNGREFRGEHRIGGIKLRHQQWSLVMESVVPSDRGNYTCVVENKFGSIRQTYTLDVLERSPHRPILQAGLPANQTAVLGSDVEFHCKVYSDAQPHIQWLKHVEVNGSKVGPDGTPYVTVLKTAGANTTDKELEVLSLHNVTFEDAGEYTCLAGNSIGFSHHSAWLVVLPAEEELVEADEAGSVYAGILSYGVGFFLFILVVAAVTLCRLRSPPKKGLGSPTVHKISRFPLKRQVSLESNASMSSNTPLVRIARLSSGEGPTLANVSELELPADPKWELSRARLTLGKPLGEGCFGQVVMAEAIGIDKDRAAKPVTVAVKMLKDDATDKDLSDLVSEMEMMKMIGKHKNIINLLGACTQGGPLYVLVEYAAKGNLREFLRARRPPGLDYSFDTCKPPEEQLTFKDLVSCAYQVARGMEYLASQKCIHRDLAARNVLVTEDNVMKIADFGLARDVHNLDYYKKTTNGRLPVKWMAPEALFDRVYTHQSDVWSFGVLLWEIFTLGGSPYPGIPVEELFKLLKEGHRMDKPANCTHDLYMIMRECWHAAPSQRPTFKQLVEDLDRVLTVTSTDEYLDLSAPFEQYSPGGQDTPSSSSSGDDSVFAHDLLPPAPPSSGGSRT
# Sequence of Hck (P08631 whole entry, looked up): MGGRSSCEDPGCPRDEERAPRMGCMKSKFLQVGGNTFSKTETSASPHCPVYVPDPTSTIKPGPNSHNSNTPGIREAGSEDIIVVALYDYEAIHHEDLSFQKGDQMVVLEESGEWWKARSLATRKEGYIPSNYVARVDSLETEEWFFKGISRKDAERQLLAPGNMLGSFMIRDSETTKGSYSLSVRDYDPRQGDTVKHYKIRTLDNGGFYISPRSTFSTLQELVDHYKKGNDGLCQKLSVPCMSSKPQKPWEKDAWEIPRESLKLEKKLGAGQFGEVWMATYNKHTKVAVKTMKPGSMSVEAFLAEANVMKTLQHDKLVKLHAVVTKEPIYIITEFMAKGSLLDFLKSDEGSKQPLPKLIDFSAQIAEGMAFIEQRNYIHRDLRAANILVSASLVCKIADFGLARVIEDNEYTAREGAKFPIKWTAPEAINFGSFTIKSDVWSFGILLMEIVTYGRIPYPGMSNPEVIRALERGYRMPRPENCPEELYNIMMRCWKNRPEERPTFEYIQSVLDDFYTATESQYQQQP
# Sequence of Jak2 (O60674 whole entry, looked up): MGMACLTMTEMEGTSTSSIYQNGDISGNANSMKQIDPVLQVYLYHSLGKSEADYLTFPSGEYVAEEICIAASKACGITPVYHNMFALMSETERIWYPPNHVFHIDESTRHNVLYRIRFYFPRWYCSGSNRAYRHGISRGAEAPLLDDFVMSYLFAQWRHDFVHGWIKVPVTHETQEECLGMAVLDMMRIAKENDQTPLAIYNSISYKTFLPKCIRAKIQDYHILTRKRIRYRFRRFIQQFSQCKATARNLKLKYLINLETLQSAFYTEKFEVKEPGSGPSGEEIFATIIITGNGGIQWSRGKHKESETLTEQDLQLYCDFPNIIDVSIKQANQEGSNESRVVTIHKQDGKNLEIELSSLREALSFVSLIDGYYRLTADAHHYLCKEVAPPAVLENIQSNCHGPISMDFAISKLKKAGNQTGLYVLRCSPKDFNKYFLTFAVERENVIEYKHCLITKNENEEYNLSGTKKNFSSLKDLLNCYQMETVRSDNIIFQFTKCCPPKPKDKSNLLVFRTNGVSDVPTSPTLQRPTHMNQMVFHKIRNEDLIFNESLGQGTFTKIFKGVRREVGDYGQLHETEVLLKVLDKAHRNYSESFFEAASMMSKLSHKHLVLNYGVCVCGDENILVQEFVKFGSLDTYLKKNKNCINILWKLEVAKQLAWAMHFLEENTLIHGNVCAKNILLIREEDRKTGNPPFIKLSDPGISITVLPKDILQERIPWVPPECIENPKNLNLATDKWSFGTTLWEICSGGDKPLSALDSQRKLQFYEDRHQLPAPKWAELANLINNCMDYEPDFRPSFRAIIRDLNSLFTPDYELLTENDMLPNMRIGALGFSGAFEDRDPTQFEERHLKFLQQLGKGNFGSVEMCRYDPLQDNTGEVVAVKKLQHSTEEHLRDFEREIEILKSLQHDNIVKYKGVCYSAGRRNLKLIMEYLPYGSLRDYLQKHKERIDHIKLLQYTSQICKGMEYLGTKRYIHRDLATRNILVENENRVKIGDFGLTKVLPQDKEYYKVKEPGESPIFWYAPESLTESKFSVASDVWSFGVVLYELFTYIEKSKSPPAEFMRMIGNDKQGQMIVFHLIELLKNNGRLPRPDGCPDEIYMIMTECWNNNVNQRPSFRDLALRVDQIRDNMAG
# Sequence of EPHB2 (P29323 whole entry, looked up): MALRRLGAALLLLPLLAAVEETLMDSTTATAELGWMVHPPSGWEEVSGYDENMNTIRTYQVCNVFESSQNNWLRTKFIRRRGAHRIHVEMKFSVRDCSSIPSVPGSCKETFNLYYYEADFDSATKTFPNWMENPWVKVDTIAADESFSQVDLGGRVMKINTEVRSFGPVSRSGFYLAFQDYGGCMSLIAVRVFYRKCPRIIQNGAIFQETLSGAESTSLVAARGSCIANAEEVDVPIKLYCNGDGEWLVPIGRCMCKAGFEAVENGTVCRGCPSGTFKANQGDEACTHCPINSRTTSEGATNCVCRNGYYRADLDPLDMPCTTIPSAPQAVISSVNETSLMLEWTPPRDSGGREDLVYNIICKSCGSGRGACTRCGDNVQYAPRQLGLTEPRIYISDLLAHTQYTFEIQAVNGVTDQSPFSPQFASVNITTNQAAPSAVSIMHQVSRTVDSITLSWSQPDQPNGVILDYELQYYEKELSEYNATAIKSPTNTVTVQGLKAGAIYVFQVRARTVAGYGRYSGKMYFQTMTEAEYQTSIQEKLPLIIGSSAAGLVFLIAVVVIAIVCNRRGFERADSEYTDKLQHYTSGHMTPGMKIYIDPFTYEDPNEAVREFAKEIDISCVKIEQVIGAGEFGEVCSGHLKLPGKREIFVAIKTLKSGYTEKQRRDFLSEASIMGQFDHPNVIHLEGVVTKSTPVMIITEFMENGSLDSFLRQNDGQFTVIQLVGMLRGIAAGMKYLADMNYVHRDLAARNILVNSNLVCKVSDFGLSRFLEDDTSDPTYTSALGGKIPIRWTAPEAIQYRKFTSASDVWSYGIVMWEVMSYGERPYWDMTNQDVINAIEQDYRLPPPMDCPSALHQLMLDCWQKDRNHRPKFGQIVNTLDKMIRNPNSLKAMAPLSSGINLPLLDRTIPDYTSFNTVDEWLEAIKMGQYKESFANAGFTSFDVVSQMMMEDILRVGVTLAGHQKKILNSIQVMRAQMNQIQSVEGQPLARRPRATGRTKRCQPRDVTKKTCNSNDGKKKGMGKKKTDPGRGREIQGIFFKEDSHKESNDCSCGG
# Sequence of Fyn (P06241 whole entry, looked up): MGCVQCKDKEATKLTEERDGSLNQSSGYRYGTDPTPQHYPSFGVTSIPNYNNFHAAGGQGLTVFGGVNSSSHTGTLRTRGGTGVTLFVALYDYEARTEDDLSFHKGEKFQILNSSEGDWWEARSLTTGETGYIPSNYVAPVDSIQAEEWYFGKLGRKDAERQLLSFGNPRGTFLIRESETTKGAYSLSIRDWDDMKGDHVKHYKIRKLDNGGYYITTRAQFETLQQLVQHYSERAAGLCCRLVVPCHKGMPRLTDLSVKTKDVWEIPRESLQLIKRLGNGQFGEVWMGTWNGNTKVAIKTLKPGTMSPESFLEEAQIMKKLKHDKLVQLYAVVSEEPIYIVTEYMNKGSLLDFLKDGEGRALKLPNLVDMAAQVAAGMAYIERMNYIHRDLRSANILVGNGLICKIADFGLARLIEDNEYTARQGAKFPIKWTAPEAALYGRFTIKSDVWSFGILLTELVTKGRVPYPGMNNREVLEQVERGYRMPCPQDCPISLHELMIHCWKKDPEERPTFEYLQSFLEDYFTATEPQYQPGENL
SH2 binding enrichment [14],SH2 binding enrichment [15],SH2 binding enrichment [16],Sequence,phosphorylation enrichment [1],phosphorylation enrichment [2],phosphorylation enrichment [3],phosphorylation enrichment [4],phosphorylation enrichment [5],phosphorylation enrichment [6],phosphorylation enrichment [7],phosphorylation enrichment [8],phosphorylation enrichment [9],phosphorylation enrichment [10],phosphorylation enrichment [11],phosphorylation enrichment [12],phosphorylation enrichment [13]
1.36,1.14,0.862,PNAYIYVVQLP [L1CAM_Y420_A415P],1.53,1.08,1.35,1.6,1.61,0.47,1.76,0.941,0.832,1.75,2.25,1.18,1.31
0.703,0.658,0.427,ATRDVYNPFET [SCAMP3_Y41_L38R],0.835,0.454,0.454,0.54,0.598,0.457,1.03,1.08,1.06,0.901,0.485,0.617,1.48
0.554,0.533,0.302,RIGRKYKRVRF [F8_Y442_K444R],2.77,0.967,1.65,1.13,1.55,1.45,3.31,1.35,1.23,2.55,2.74,2.59,3.73
1.78,1.24,1.27,ITNVLYHVVGW [GBA_Y412_L410V],1.06,2.31,1.32,6.43,5.06,1.82,1.25,3.01,4.59,1.87,6.81,4.13,3.13
0.858,0.942,0.369,RKELFYKADGE [SERPINC1_Y272],1.12,0.824,0.548,0.713,0.638,0.783,1.08,0.519,0.881,0.893,0.659,0.779,0.63
0.755,0.728,0.464,AKRKGYDMRVD [NEB_Y2770],0.459,0.295,0.339,0.292,0.297,0.358,0.477,0.47,0.355,0.431,0.394,0.42,0.363
0.573,0.91,0.463,AYRRGYFDEEM [PLEC_Y2971],1.13,0.469,0.377,0.477,0.5,0.389,0.906,0.442,0.397,0.849,0.412,0.54,0.371
0.909,0.548,0.474,PDMHSYMVRFN [GRIN2D_Y732_YF],0.991,0.488,0.69,0.711,0.807,0.494,0.931,0.629,0.641,1.14,0.651,0.811,1.15
0.67,0.594,0.467,AEMTGYVMTRW [MAPK13_Y182_V184M],1.29,0.656,0.578,0.653,0.885,0.537,1.23,0.493,0.561,1.11,0.364,0.709,0.397
0.838,0.772,0.554,AGTIPYHAHLD [ASS1_Y291_L290P],0.507,0.395,0.369,0.458,0.435,0.357,0.645,0.415,0.484,0.447,0.456,0.474,0.377
0.808,0.575,0.951,GGYNNYGYGSD [HNRNPH3_Y159_N163S],0.71,1.48,2.4,0.406,0.467,0.421,0.697,0.379,0.475,0.611,0.479,0.608,0.38
0.939,1.11,0.44,LLINKYGLSDH [SCP2_Y151_A155D],1.08,0.646,0.62,0.546,0.849,0.709,1.45,0.678,0.826,1.19,0.645,0.794,0.712
1.44,0.955,0.726,IHFAIYLLKYS [ARMC9_Y107],1.09,0.486,0.59,0.368,0.686,0.486,1.16,0.516,0.463,0.917,0.425,0.753,0.446
0.702,0.768,0.56,PTYKHYANSTQ [SLC12A3_Y70_E68K],0.39,0.391,0.418,0.529,0.466,0.448,0.592,0.542,0.434,0.593,0.442,0.44,0.422
1.02,0.75,0.706,DFCDLYGGEKF [PTPN11_Y66_Y63C_YF],1.03,0.511,0.564,0.575,0.832,0.672,1.33,1.35,1.76,0.908,0.54,0.833,2.78
0.834,0.783,0.506,ANSPVYVPTTR [GATA6_Y188_S184N],0.506,0.371,0.405,0.419,0.441,0.44,0.667,0.384,0.583,0.821,0.468,0.52,0.448
1.01,0.711,0.621,DEQKKYYNAMK [SCN5A_Y1494_E1489D],0.874,0.613,0.543,0.575,0.508,0.35,0.772,0.442,0.458,0.531,0.572,0.594,0.39
0.939,0.939,0.626,FDDIAYIQKTL [PIK3CA_Y1021_R1023Q],0.832,0.425,0.68,0.503,0.6,0.352,0.819,0.479,0.488,0.952,0.529,0.591,0.485
1.03,1.06,0.762,CGQDPCIRELG [UROS_Y19_Y19C],0.991,0.44,0.508,0.581,0.569,0.458,0.946,0.468,0.423,0.821,0.449,0.644,0.421
0.863,0.6,0.479,ALDHKYHGGGG [HBB_Y146_A143D],0.458,0.342,0.355,0.365,0.392,0.321,0.526,0.375,0.406,0.455,0.381,0.425,0.372
0.89,0.73,0.735,SVVVPYEPPDV [TP53_Y220_E224D],0.984,0.554,0.528,0.524,0.612,0.456,0.932,0.429,0.447,0.752,0.337,0.603,0.415
0.868,0.77,3.95,LNPDGYEKAFE [CPXM2_Y427_YF],1.15,0.667,0.988,0.769,0.704,0.557,1.49,0.576,0.586,0.995,0.483,1.05,0.738
0.96,0.793,0.566,LLKKVYLMLDN [STAT1_Y203_M202V],1.82,0.93,0.953,0.968,1.15,0.801,2.19,0.627,0.658,1.85,0.704,1.34,0.816
0.853,2.4,2.23,SSQTVYQRVEG [TFR2_Y23],0.962,0.631,0.447,0.526,0.483,0.517,0.708,0.6,0.77,0.596,0.499,0.458,0.585
0.539,0.57,0.424,RFLRGYRQHAY [HLA-A_Y137_D140H],1.1,0.787,0.879,0.623,0.849,1.02,1.04,0.654,1.06,0.979,1.33,1.31,1.11
0.798,0.738,0.521,LNPLIYTLRNA [OR4C46_Y285_K288R],1.79,0.576,0.9,0.922,0.863,1.03,1.12,4.69,7.15,1.31,1.97,1.76,6.62
0.68,0.515,0.415,KDAGDYKYKAK [LRIT3_Y326_C328Y],0.398,0.353,0.366,0.337,0.387,0.256,0.604,0.308,0.346,0.519,0.32,0.571,0.319
11.8,0.666,0.864,DTKPAYQNLRQ [BOD1_Y82],0.462,0.38,0.35,0.434,0.452,0.385,0.541,0.383,0.349,0.524,0.313,0.719,0.38
1.39,0.703,5.44,LSDGPYSNPYE [EPOR_Y485],–,–,–,–,–,–,–,–,–,3.98,–,3.22,3.36
